Data on seven molecules can be found in patent US20110091994A1, “Methods for Screening Compounds for Treating and/or Preventing an Hepatitis C Virus Infection” (priority 2008, published 2011).

The chains are these.
B1: PLSCR1 (protein, UniProt O15162 1-318, looked up)
Phospholipid scramblase 1: MDKQNSQMNASHPETNLPVGYPPQYPPTAFQGPPGYSGYPGPQVSYPPPPAGHSGPGPAGFPVPNQPVYNQPVYNQPVGAAGVPWMPAPQPPLNCPPGLEYLSQIDQILIHQQIELLEVLTGFETNNKYEIKNSFGQRVYFAAEDTDCCTRNCCGPSRPFTLRIIDNMGQEVITLERPLRCSSCCCPCCLQEIEIQAPPGVPIGYVIQTWHPCLPKFTIQNEKREDVLKISGPCVVCSCCGDVDFEIKSLDEQCVVGKISKHWTGILREAFTDADNFGIQFPLDLDVKMKAVMIGACFLIDFMFFESTGSQEQKSGVW
B2: SSX2IP (protein, UniProt Q9Y2D8 1-614, looked up)
Afadin- and …: MGDWMTVTDPGLSSESKTISQYTSETKMSPSSLYSQQVLCSSIPLSKNVHSFFSAFCTEDNIEQSISYLDQELTTFGFPSLYEESKGKETKRELNIVAVLNCMNELLVLQRKNLLAQENVETQNLKLGSDMDHLQSCYSKLKEQLETSRREMIGLQERDRQLQCKNRNLHQLLKNEKDEVQKLQNIIASRATQYNHDMKRKEREYNKLKERLHQLVMNKKDKKIAMDILNYVGRADGKRGSWRTGKTEARNEDEMYKILLNDYEYRQKQILMENAELKKVLQQMKKEMISLLSPQKKKPRERVDDSTGTVISDVEEDAGELSRESMWDLSCETVREQLTNSIRKQWRILKSHVEKLDNQVSKVHLEGFNDEDVISRQDHEQETEKLELEIQQCKEMIKTQQQLLQQQLATAYDDDTTSLLRDCYLLEEKERLKEEWSLFKEQKKNFERERRSFTEAAIRLGLERKAFEEERASWLKQQFLNMTTFDHQNSENVKLFSAFSGSSDWDNLIVHSRQPQKKPHSVSNGSPVCMSKLTKSLPASPSTSDFCQTRSCISEHSSINVLNITAEEIKPNQVGGECTNQKWSVASRPGSQEGCYSGCSLSYTNSHVEKDDLP
B3: SRPX2 (protein, UniProt O60687 24-465, looked up)
Sushi repeat-containing …: TWYAGSGYYPDESYNEVYAEEVPQAPALDYRVPRWCYTLNIQDGEATCYSPKGGNYHSSLGTRCELSCDRGFRLIGRRSVQCLPSRRWSGTAYCRQMRCHALPFITSGTYTCTNGVLLDSRCDYSCSSGYHLEGDRSRICMEDGRWSGGEPVCVDIDPPKIRCPHSREKMAEPEKLTARVYWDPPLVKDSADGTITRVTLRGPEPGSHFPEGEHVIRYTAYDRAYNRASCKFIVKVQVRRCPTLKPPQHGYLTCTSAGDNYGATCEYHCDGGYDRQGTPSRVCQSSRQWSGSPPICAPMKINVNVNSAAGLLDQFYEKQRLLIISAPDPSNRYYKMQISMLQQSTCGLDLRHVTIIELVGQPPQEVGRIREQQLSANIIEELRQFQRLTRSYFNMVLIDKQGIDRDRYMEPVTPEEIFTFIDDYLLSNQELTQRREQRDICE
B4: SPON1 (protein, UniProt Q9HCB6 29-807, looked up)
Spondin-1: FSDETLDKVPKSEGYCSRILRAQGTRREGYTEFSLRVEGDPDFYKPGTSYRVTLSAAPPSYFRGFTLIALRENREGDKEEDHAGTFQIIDEEETQFMSNCPVAVTESTPRRRTRIQVFWIAPPAGTGCVILKASIVQKRIIYFQDEGSLTKKLCEQDSTFDGVTDKPILDCCACGTAKYRLTFYGNWSEKTHPKDYPRRANHWSAIIGGSHSKNYVLWEYGGYASEGVKQVAELGSPVKMEEEIRQQSDEVLTVIKAKAQWPAWQPLNVRAAPSAEFSVDRTRHLMSFLTMMGPSPDWNVGLSAEDLCTKECGWVQKVVQDLIPWDAGTDSGVTYESPNKPTIPQEKIRPLTSLDHPQSPFYDPEGGSITQVARVVIERIARKGEQCNIVPDNVDDIVADLAPEEKDEDDTPETCIYSNWSPWSACSSSTCDKGKRMRQRMLKAQLDLSVPCPDTQDFQPCMGPGCSDEDGSTCTMSEWITWSPCSISCGMGMRSRERYVKQFPEDGSVCTLPTEETEKCTVNEECSPSSCLMTEWGEWDECSATCGMGMKKRHRMIKMNPADGSMCKAETSQAEKCMMPECHTIPCLLSPWSEWSDCSVTCGKGMRTRQRMLKSLAELGDCNEDLEQVEKCMLPECPIDCELTEWSQWSECNKSCGKGHVIRTRMIQMEPQFGGAPCPETVQRKKCRIRKCLRNPSIQKLRWREARESRRSEQLKEESEGEQFPGCRMRPWTAWSECTKLCGGGIQERYMTVKKRFKSSQFTSCKDKKEIRACNVHPC
B5: SPOCK3 (protein, UniProt Q9BQ16 22-436, looked up)
Testican-3: AAAAVAAAGGRSDGGNFLDDKQWLTTISQYDKEVGQWNKFRDEVEDDYFRTWSPGKPFDQALDPAKDPCLKMKCSRHKVCIAQDSQTAVCISHRRLTHRMKEAGVDHRQWRGPILSTCKQCPVVYPSPVCGSDGHTYSFQCKLEYQACVLGKQISVKCEGHCPCPSDKPTSTSRNVKRACSDLEFREVANRLRDWFKALHESGSQNKKTKTLLRPERSRFDTSILPICKDSLGWMFNRLDTNYDLLLDQSELRSIYLDKNEQCTKAFFNSCDTYKDSLISNNEWCYCFQRQQDPPCQTELSNIQKRQGVKKLLGQYIPLCDEDGYYKPTQCHGSVGQCWCVDRYGNEVMGSRINGVADCAIDFEISGDFASGDFHEWTDDEDDEDDIMNDEDEIEDDDEDEGDDDDGGDDHDVYI
B6: THAP1 (protein, UniProt Q9NVV9 1-213, looked up)
THAP domain-containing …: MVQSCSAYGCKNRYDKDKPVSFHKFPLTRPSLCKEWEAAVRRKNFKPTKYSSICSEHFTPDCFKRECNNKLLKENAVPTIFLCTEPHDKKEDLLEPQEQLPPPPLPPPVSQVDAAIGLLMPPLQTPVNLSVFCDHNYTVEDTMHQRKRIHQLEQQVEKLRKKLKTAQQRCRRQERQLEKLKEVVHFQKEKDDVSERGYVILPNDYFEIVEVPA
B7: TBC1D2B (protein, UniProt Q9UPU7 1-963, looked up)
TBC1 domain family member 2B: MPGAGARAEEGGGGGEGAAQGAAAEPGAGPAREPARLCGYLQKLSGKGPLRGYRSRWFVFDARRCYLYYFKSPQDALPLGHLDIADACFSYQGPDEAAEPGTEPPAHFQVHSAGAVTVLKAPNRQLMTYWLQELQQKRWEYCNSLDMVKWDSRTSPTPGDFPKGLVARDNTDLIYPHPNASAEKARNVLAVETVPGELVGEQAANQPAPGHPNSINFYSLKQWGNELKNSMSSFRPGRGHNDSRRTVFYTNEEWELLDPTPKDLEESIVQEEKKKLTPEGNKGVTGSGFPFDFGRNPYKGKRPLKDIIGSYKNRHSSGDPSSEGTSGSGSVSIRKPASEMQLQVQSQQEELEQLKKDLSSQKELVRLLQQTVRSSQYDKYFTSSRLCEGVPKDTLELLHQKDDQILGLTSQLERFSLEKESLQQEVRTLKSKVGELNEQLGMLMETIQAKDEVIIKLSEGEGNGPPPTVAPSSPSVVPVARDQLELDRLKDNLQGYKTQNKFLNKEILELSALRRNAERRERDLMAKYSSLEAKLCQIESKYLILLQEMKTPVCSEDQGPTREVIAQLLEDALQVESQEQPEQAFVKPHLVSEYDIYGFRTVPEDDEEEKLVAKVRALDLKTLYLTENQEVSTGVKWENYFASTVNREMMCSPELKNLIRAGIPHEHRSKVWKWCVDRHTRKFKDNTEPGHFQTLLQKALEKQNPASKQIELDLLRTLPNNKHYSCPTSEGIQKLRNVLLAFSWRNPDIGYCQGLNRLVAVALLYLEQEDAFWCLVTIVEVFMPRDYYTKTLLGSQVDQRVFRDLMSEKLPRLHGHFEQYKVDYTLITFNWFLVVFVDSVVSDILFKIWDSFLYEGPKVIFRFALALFKYKEEEILKLQDSMSIFKYLRYFTRTILDARKLISISFGDLNPFPLRQIRNRRAYHLEKVRLELTELEAIREDFLRERDTSPDKGELVSDEEEDT
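Wherever IMAP Y2H IMAP1 (number of IST) is given: yeast two-hybrid screens using HCV genotype 1b proteins fused to Gal4-DB as baits against prey cDNA libraries from human spleen and foetal brain, IMAP1 via transformation and IMAP2 via mating.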
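Wherever Interaction with viral protein is given: yeast two-hybrid screens using HCV genotype 1b proteins fused to Gal4-DB as baits against prey cDNA libraries from human spleen and foetal brain, IMAP1 via transformation and IMAP2 via mating.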

In one assay the target is T1, HCV ORFs (Gal4-DB fusions) (Hepatitis C virus genotype 1b, UniProt Q9WMX2).
T1 construct: expressed in transfected cells; host or cells: Saccharomyces cerevisiae MAV203 (IMAP1) / AH109 (IMAP2)
Experiment: not given
It counts as binding, HCV genotype 1b, isolate con1. Particulars: HCV protein CORE as bait; human protein as prey.
In the case of B1, the “IMAP Y2H IMAP1 (number of IST)” value came out at 1.

The assay is the same for the next values; noted with them: HCV protein NS3 as bait; human protein as prey.
On to B2, for which the “IMAP Y2H IMAP1 (number of IST)” value amounted to 3.

As to B3, the “IMAP Y2H IMAP1 (number of IST)” value is on record as 1.

As for B4, the “IMAP Y2H IMAP1 (number of IST)” value is given as 1.

On to B5, for which the “IMAP Y2H IMAP1 (number of IST)” value is 1.

Regarding B6, the “IMAP Y2H IMAP1 (number of IST)” value came out at 1.

Regarding B7, the “IMAP Y2H IMAP1 (number of IST)” value is 1.

Another assay has as its system HCV ORFs (Gal4-DB fusions).
Experiment: not given
It counts as binding, HCV genotype 1b, isolate con1. Particulars: human protein listed by gene symbol; the value names the HCV protein it interacts with.
B1: the “Interaction with viral protein” value is “CORE”.

As for B2, the “Interaction with viral protein” value was “NS3”.

With B3, the “Interaction with viral protein” value is “NS3”.

Consider B4, for which the “Interaction with viral protein” value was “NS3”.

For B5, the “Interaction with viral protein” value is “NS3”.

On to B6, for which the “Interaction with viral protein” value is on record as “NS3”.

Turning to B7, the “Interaction with viral protein” value is “NS3”.

The next assay has as its target T2, HCV proteins (Hepatitis C virus genotype 1b, UniProt Q9WMX2).
T2 construct: expressed in transfected cells
Put plainly: Validation by Y2H pairwise matrices.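 Further: yeast two-hybrid pairwise tests of interactions first found in Y2H screens of HCV bait proteins against human cDNA libraries.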 It counts as binding. To be noted: validation of interaction with HCV protein CORE.
As to B1, the Y2H matrices entry is “+”.

The assay is the same for the next values; noted with them: validation of interaction with HCV protein NS3.
Take B2: the Y2H matrices entry is recorded as “+”.

As for B3, the Y2H matrices result was “+”.

Take B4: the Y2H matrices result was “+”.

As for B5, the Y2H matrices result is “+”.

B6: the Y2H matrices entry is reported as “+”.

With B7, the Y2H matrices result is “+”.
